Experimental data reported in patent US20150239950A1 (SALK INSTITUTE FOR BIOLOGICAL STUDIES, published 2015).
Residue numbers refer to the chain shown, from its start. Where two headings read alike, the source gives them in different places.

B1: Activin-βA (ligand)
chain: GLECDGKVNICCKKQFFVSFKDIGWNDWIIAPSGYHANYCEGECPSHIAGTSGSSLSFHSTVINHYRMRGHSPFANLKSCCVPTKLRPMSMLYYDDGQNIIKKDIQNMIVEECGCS
notes: also called Activin-A
B2: BMPRIa-ECD (extracellular domain of human BMPRIa, residues 1-129) (receptor, UniProt P36894 24-152, looked up)
chain: QNLDSMLHGTGMKSDSDQKKSENGVTLAPEDTLPFLKCYCSGHCPDDAINNTCITNGHCFAIIEEDDQGETTLASGCMKYEGSDFQCKDSPKAQLRRTIECCRTNLCNQYLQPTLPPVVIGPFFDGSIR
notes: extracellular domain; also called type I receptor ECD
B3: BMP2/BMP6 heterodimer (ligand)
chain 1: QAKHKQRKRLKSSCKRHPLYVDFSDVGWNDWIVAPPGYHAFYCHGECPFPLADHLNSTNHAIVQTLVNSVNSKIPKACCVPTELSAISMLYLDENEKVVLKNYQDMVVEGCGCR
chain 2: MQQSRNRSTQSQDVARVSSASDYNSSELKTACRKHELYVSFQDLGWQDWIIAPKGYAANYCDGECSFPLNAHMNATNHAIVQTLVHLMNPEYVPKPCCAPTKLNAISVLYFDDNSNVILKKYRNMVVRACGCH
notes: also called B2/B6
B4: BMP2 homodimer (mature domain of human BMP2) (ligand)
chain: B3 chain 1
notes: also called BMP-2wt; BMP-2ma
B5: AB2-015 (1b2a3b4b5b6a activin/BMP-2 chimera) (ligand)
chain: MQAKHKQRKRLKSSCKRHPLYVDFSDVGWNDWIIAPSGYHANYCDGECPFPLADHLNSTNHAIVQTLVNSVNSKIPKACCVPTELSAISMLYYDDGQNIIKKDIQNMIVEECGCS
B6: AB2-004 (1b2a3b4b5a6a activin/BMP-2 chimera) (ligand)
chain: B5 chain with E84K, S86R, A87P, I88M
B7: AB2-012 (1b2b3b4b5b6a activin/BMP-2 chimera) (ligand)
chain: B5 chain with I34V, S37P, N42F, D45H, Q97R
B8: AB2-011 (1b2b3b4b5a6a activin/BMP-2 chimera) (ligand)
chain: MQAKHQQRKRLKSSCKRHPLYVDFSDVGWNDWIVAPPGYHAFYCHGECPFPLADHLNSTNHAIVQTLVNSVNSKIPKACCVPTKLRPSMLYYDDGQNIIKKDIQNMIVEECGCS
B9: ActRIIb-ECD (extracellular domain of mouse ActRIIb, residues 1-98) (receptor, UniProt P27040 19-137, looked up)
chain: SGRGEAETRECIYYNANWELERTNQSGLERCEGEQDKRLHCYASWRNSSGTIELVKKGCWLDDFNCYDRQECVATEENPQVYFCCCEGNFCNERFTHLPEPGGPEVTYEPPPTAPTLLT
notes: extracellular domain; also called type II receptor ECD
B10: AB2-008 (1b2a3a4a5a6a activin/BMP-2 chimera) (ligand)
chain: MQAKHKQRKRLKSSCKRHPLYVDFSDVGWNDWIIAPSGYHANYCEGECPSHIAGTSGSSLSFHSTLVNHYRMRGHSPFANLKSCCVPTKLRPMSMLYYDDGQNIIKKDIQNMIVEECGCS
notes: The entry includes the initiator Met

Key:
[1] = molecular target: T1, ActRII-ECD (extracellular domain of mouse ActRII, residues 1-102) (mouse, UniProt P27038 20-135); assay: SPR (BIAcore), receptor ECD immobilized, ligand flowed; 1:1 Langmuir with mass transfer; single trial
T1 construct: extracellular domain; also called type II receptor ECD
Description: (§1) The receptors were immobilized to the chip surface with the ligands flowed over the surface. The data were fit to a kinetic model (1:1 Langmuir binding with mass transfer) in which KD is calculated as koff/kₒₙ. The table reports data from a single trial.

[2] = molecular target: T1, ActRII-ECD (extracellular domain of …); assay: SPR (BIAcore), receptor ECD immobilized, ligand flowed; KD = koff/kon; single trial
Description: as §1

[3] = molecular target: B2; assay: SPR (BIAcore), receptor ECD immobilized, ligand flowed; 'No Binding indicates that the interaction was not detectable'
Description: as §1

[4] = molecular target: T1, ActRII-ECD (extracellular domain of …); assay: SPR (BIAcore), receptor ECD immobilized, ligand flowed; 1:1 Langmuir with mass transfer; single trial; remark: listed apart in the source
Description: as §1

[5] = molecular target: T1, ActRII-ECD (extracellular domain of …); assay: SPR (BIAcore), receptor ECD immobilized, ligand flowed; KD = koff/kon; single trial; remark: listed apart in the source
Description: as §1

[6] = molecular target: Cripto (mouse Cripto construct transfected into HEK293T cells) (mouse) (UniProt P51865); assay: cell-based or functional assay
[7] = molecular target: T2, BMP6 homodimer (mature domain of human BMP6, residues 1-132) (human, UniProt P22004 382-513); assay: SPR (BIAcore), receptor ECD immobilized, ligand flowed; KD = koff/kon
T2 sequence: B3 chain 2
Description: (§2) The affinity of the ligands to BMPRIa, ActRII, and ActRIIb was monitored by using a Biacore 3000 (GE Healthcare) and the data were analyzed by using BlAevaluation software ver. 4.1 (GE Healthcare). Using primary amine coupling, receptor ECDs were immobilized on a CM5 chip. The receptors were immobilized independently on flow cells 2-4 for 10 minutes at a flow rate of 5 μL/min and a concentration of 20 μM in 10 mM Na acetate, pH 4.0. Flow cell 1 was left blank, no immobilized protein, as a negative control. […] A minimum of five concentrations, plus a zero concentration, were run per sample for kinetic analysis and the data were fit by using a global 1:1 Langmuir binding with mass transfer.
(§3) Ligand affinity data from BIAcore experiments. The BIAcore data is shown as the dissociation rate, koff, and the association rate, kₒₙ, based on a global fit using the kinetic model 1:1 Langmuir binding with mass transfer. The binding constant KD is calculated as koff/kₒₙ. The receptors were immobilized to the chip surface, with the ligands flowed over the surface.

[8] = molecular target: T2, BMP6 homodimer (mature domain of human …); assay: SPR, receptor binding affinity
[9] = molecular target: T1, ActRII-ECD (extracellular domain of …); assay: native-PAGE receptor ECD saturation assay, 5 µg ActRII-ECD with 10 µg ligand, Coomassie densitometry
[10] = molecular target: B9; assay: SPR (BIAcore), receptor ECD immobilized, ligand flowed; KD = koff/kon
Description: as §2, §3

[11] = molecular target: B9; assay: SPR, receptor binding affinity
[12] = molecular target: T1, ActRII-ECD (extracellular domain of …); assay: SPR (BIAcore), receptor ECD immobilized
[13] = molecular target: B3; assay: SPR (BIAcore), receptor ECD immobilized, ligand flowed; KD = koff/kon
Description: as §2, §3

[14] = molecular target: B3; assay: SPR, receptor binding affinity
[15] = molecular target: T2, BMP6 homodimer (mature domain of human …); assay: SPR (BIAcore), receptor ECD immobilized, ligand flowed; 1:1 Langmuir with mass transfer
Description: as §2, §3

T1 sequence (P27038 20-135): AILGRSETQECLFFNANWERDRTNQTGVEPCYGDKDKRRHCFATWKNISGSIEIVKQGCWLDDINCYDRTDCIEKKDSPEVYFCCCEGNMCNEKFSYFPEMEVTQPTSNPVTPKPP
Sequence of Cripto (mouse Cripto construct transfected into HEK293T cells) (mouse) (P51865 18-134): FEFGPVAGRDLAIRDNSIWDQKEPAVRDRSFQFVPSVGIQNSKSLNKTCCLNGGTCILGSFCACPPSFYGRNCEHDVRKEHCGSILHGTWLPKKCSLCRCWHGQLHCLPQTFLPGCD

B1
koff [1]: 0.000716 s⁻¹ | kon [1]: 3.52e+06 M⁻¹ s⁻¹ | Kd [2]: 0.203 nM | binding result [3]: no binding | koff [4]: 0.000716 s⁻¹ | kon [4]: 3.52e+06 M⁻¹ s⁻¹ | Kd [5]: 0.203 nM | decrease in Smad-2/3 luciferase signaling in HEK293T cells in the presence of Cripto [6]: 43%

B2
Kd [7]: 62.8 nM | Kd [8]: 62.8 nM

B3
fold decrease of the free type II receptor ECD band intensity against receptor ECD alone [9]: 9 fold

B4
Kd [2]: 36.8 nM | Kd [10]: 38.5 nM | Kd [11]: 38.5 nM

B5
Kd [2]: 0.23 nM | binding result [3]: no binding | fold higher binding against BMP-2 [12]: ~100 fold | koff [4]: 0.000371 s⁻¹ | kon [4]: 1.61e+06 M⁻¹ s⁻¹

B6
Kd [2]: 0.381 nM | koff [4]: 0.000187 s⁻¹ | kon [4]: 491000 M⁻¹ s⁻¹

B7
Kd [2]: 0.472 nM | koff [4]: 0.0016 s⁻¹ | kon [4]: 3.39e+06 M⁻¹ s⁻¹

B8
Kd [2]: 0.525 nM | koff [4]: 0.000339 s⁻¹ | kon [4]: 646000 M⁻¹ s⁻¹

B9
Kd [7]: 6.68 nM | Kd [13]: 6.52 nM | Kd [8]: 6.68 nM | koff [8]: 0.00182 s⁻¹ | kon [8]: 273000 M⁻¹ s⁻¹ | Kd [14]: 6.52 nM | koff [14]: 0.00861 s⁻¹ | kon [14]: 1.32e+06 M⁻¹ s⁻¹ | koff [15]: 0.00182 s⁻¹ | kon [15]: 273000 M⁻¹ s⁻¹

B10
koff [1]: 0.000824 s⁻¹ | kon [1]: 2.39e+06 M⁻¹ s⁻¹ | binding result [3]: no binding | fold weaker affinity against activin-βA [12]: ~1.7 fold | Kd [5]: 0.344 nM
